Data taken from paper PMC11615828.
Each block holds one substance with its values, some of them ahead of it.

Key:
EMTB‐YFP‐CIBN [1] = biological target: EMTB‐YFP‐CIBN (UniProt Q8GY61)
EMTB‐CFP‐FRB [2] = biological target: EMTB‐CFP‐FRB
EMTB‐YFP‐CIBN [3] = biological target: EMTB‐YFP‐CIBN (UniProt Q8GY61); remark: listed apart in the source
EMTB‐CFP‐FRB [4] = biological target: EMTB‐CFP‐FRB; remark: listed apart in the source

Substance: ACE2‐mNeon‐FKBP
internalisation of SARS-CoV2 spike‐Alexa Fluor 647 into ACE2-positive HeLa cells after 2 h, rapamycin 100 nM against DMSO (LifeAct‐CFP‐FRB): 89%

immobilisation of LAMP1-labelled lysosomes under blue light (half time on) (EMTB‐YFP‐CIBN [1]): 6.2 s | return of lysosome mobility after the end of blue light (half time off) (EMTB‐YFP‐CIBN [1]): 68.8 s
Substance: LAMP1‐mCh‐Cry2

motility of LAMP1-labelled lysosomes slowed after rapamycin (half time of the slowing) (EMTB‐CFP‐FRB [2]): 11 s
Substance: LAMP1‐mNeon‐FKBP

motility of post-Golgi vesicles halted after rapamycin 100 nM (half time) (EMTB‐CFP‐FRB [2]): 9 s
Substance: TGN38‐mNeon‐FKBP

immobilisation of VAMP2-labelled vesicles under blue light (half time on) (EMTB‐YFP‐CIBN [3]): 7 s | return of VAMP2 vesicle mobility after blue light (half time off) (EMTB‐YFP‐CIBN [3]): 68.1 s
Substance: mCh‐Cry2‐VAMP2

movement of IFT88 particles along axonemes in cilia of NIH3T3 cells after rapamycin 100 nM (CFP‐FRB‐MAP4m): 20 s
Substance: mNeon‐FKBP‐IFT88

motility of endosomes halted after rapamycin 100 nM (half time) (EMTB‐CFP‐FRB [2]): 11.8 s
Substance: mNeon‐FKBP‐Rab5b

motility of recycling endosomes halted after rapamycin 100 nM (half time) (EMTB‐CFP‐FRB [2]): 12.5 s
Substance: mNeon‐FKBP‐Rab11b

motility of exocytic vesicles halted after rapamycin 100 nM (half time) (EMTB‐CFP‐FRB [2]): 12.3 s
Substance: mNeon‐FKBP‐Rab37

immobilisation of VAMP2-labelled vesicles in COS7 cells after rapamycin 100 nM (half time) (EMTB‐CFP‐FRB [4]): 19.2 s | immobilisation of VAMP2-labelled vesicles in primary culture cortical neurons after rapamycin 100 nM (half time) (EMTB‐CFP‐FRB [4]): 13.6 s
Substance: mNeon‐FKBP‐VAMP2
